Experimental findings from paper PMC5839794 (The Journal of Cell Biology, 2018) are described below.

The target in the experiment is T1, GST-ZW10 (full length GST-tagged human ZW10) (human, UniProt O43264 1-779).
T1 sequence (looked up): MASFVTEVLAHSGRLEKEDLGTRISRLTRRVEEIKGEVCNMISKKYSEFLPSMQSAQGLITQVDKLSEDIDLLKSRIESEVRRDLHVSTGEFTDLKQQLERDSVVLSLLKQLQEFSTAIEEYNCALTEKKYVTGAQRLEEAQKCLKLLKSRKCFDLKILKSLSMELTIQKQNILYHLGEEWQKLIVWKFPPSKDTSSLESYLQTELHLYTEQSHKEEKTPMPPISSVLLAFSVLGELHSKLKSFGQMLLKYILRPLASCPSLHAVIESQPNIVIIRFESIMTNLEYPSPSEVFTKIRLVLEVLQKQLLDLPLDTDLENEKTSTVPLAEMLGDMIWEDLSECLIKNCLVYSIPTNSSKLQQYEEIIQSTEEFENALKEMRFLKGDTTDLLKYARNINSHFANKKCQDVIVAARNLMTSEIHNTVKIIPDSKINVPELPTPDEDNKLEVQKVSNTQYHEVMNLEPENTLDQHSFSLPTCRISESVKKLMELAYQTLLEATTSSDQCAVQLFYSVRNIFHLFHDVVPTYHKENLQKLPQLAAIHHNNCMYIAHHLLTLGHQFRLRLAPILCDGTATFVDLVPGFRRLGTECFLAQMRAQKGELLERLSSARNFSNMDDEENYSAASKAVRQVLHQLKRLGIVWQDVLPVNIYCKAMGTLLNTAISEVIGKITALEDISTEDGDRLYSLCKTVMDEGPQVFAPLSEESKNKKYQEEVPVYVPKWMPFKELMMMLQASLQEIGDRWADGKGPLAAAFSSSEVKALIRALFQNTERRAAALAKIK
Nature of the experiment: pull-down.

B1: His-tagged human Chmp4c (natural protein, UniProt Q96CF2 1-233, looked up)
chain: MSKLGKFFKGGGSSKSRAAPSPQEALVRLRETEEMLGKKQEYLENRIQREIALAKKHGTQNKRAALQALKRKKRFEKQLTQIDGTLSTIEFQREALENSHTNTEVLRNMGFAAKAMKSVHENMDLNKIDDLMQEITEQQDIAQEISEAFSQRVGFGDDFDEDELMAELEELEQEELNKKMTNIRLPNVPSSSLPAQPNRKPGMSSTARRSRAASSQRAEEEDDDIKQLAAWAT
Turning to B1, the binding result is “binds”.
